# B1: NgaCa (Cohnella abietis) (protein)
# chain: MANTQKTLSLSVWTASSQERVRQDDPAGESLNIELFAARGEYESFQVALKAPEGEHRNVHFVVSDLKGTGDSFISKSNLTLYREHYVYISESSPQRGTVLPEGPGWYPDALIPFIDPATNEPPSGGELIAVPFALENNSNQVIWVDIQVPRDAEAGHYSGSYIVSSEHGEVTGQISLTVWNFELPLKPSLKSTFLIWSSRKKSTVEELLKHKLMCQQWNLSEEEKGAAPTSEGEWIEKYGVNCSGLGFWSKADTFNGVMPPPPTVEEIQAAASAHPSNLFLYNYTADEIGHYTSLYEPIKAWARNLHEAGVANLITMAPVPELYDDGSGSGRSAVDIWVILPLQYDKDRIQEVLAKGDEVWSYNCCVQDDYSPKWQIDFNPIEYRIQPGFINQSLGMTGILYWRVDFWTEDPWHDVLTLRADGMEFNGEGMLVYPGEQVGIDGVVPSIRLKAIRKGIEDYEYIEILKNLGHEQWALEISQSVGPDWHNWTKDHHKLEWARKQLGERINDLMTK
# notes: synthetic gene, pET-47b(+), E. coli BL21 Star (DE3); His tag cut with HRV3C; monomer
# B2: NgaAt (Arabidopsis thaliana) (protein)
# chain: MDNNVSQEMTVPVEGVAGGGTAYGFNDAEPLKQSTDPSEVPTADLVNVWCMPNTVNVGSQETPRALEPINLLAARNERESFQIAMRPKVSWAASSPSGIVQVQCSDLCSSAGDRLVVGQSLKLRRVVPVLGVPDALVPLDLPVSQLSLFPGETSVIWVSIDVPTGQPPGQYEGEIIISAMKTDGGGSSHLAKHEKDQLCVELNTCLDIMEPIEGKPMDEVVERIKCASSSLRRILFSPSFSEFISTNGSTDMMEEDVVSNLSLRIKLRLTVWEFIIPVTPSLPAVIGVSDTVIEDRFAVEHGSEDWYKKLDLHFKWLLQYRISPYFCKWGESMRVLTYTSPWPADHPKSDEYLSDSRLAAYAVPYRQVIAGDDSRESYLRKEVEILRSKPHWNKAYFYLWDEPLNMEHFDNVRKMASEIYAYAPDSRVLTTYYCGPGDAPLAPTPFESFVKVPNLLRPYTQIYCTSEWVLGNREDLVKDILDELQTENGEEWWTYICLGPSDPHPNWHLGMRGTQQRAVMWRVWKEGGTGFLYWGANCYEKATVPSAEVKFRRGLPPGDGVLYYPGEVFSSSSEPVASLRLERLLSGLQDYEYLKLYESKYGREEAMGLLEKTGVYTGPERYTLEHRPIDVLRGEVYNTCRPS
# notes: synthetic gene, pET-47b(+), E. coli BL21 Star (DE3); His tag cut with HRV3C; monomer; extra N-terminal domain of ~80 residues disordered in crystal
# B3: NgaBa (Bathyarchaeia (SeqCode)) (protein)
# chain: MSRFDVWVQDSLTKVFRDSPKPEDAIKDVVLDAVRNEYEAAQIVVHPLEDVERLEVRVTSLRHESDEYAITRVYPRFVGYVPVKRNTPDTPPEELVRKAPGMFPDPLLEEETVRVKKGENQPVWLTVYVPKDAPPGTYHGEVLIRADGDETRVKTCLRVHDVILPDERNLKLSNFLSPHNISKFHGVELWSEDFWRLLKAYARNMAEHRQSSIITPILELTRIYKGDDRLEFDFRLLDRWINLFKEEGVIGTVEGGYLAGRPPRTVEGWWTVSEFLSRRYRVFNKDGSLAYVQEPVKVSSPVFEEFISQFMPALQAHLDELGLLDSYVQHLADEPIDANAESYKHIAGLVRKYAPKIRIIEASTCKRLVDYIDVLVPLLDDYDKNMSFYEERKRRGNEVWFYTCLAPTGRYPNRLIDYSLVKVRILHWINFKYGLVGYLHWGYNYWTEKPFEDVENEPSHPFPLPPGDPFIVYPGKSGPLDSIRFEALRDGVEDYELFKLLAERKGLDEAVGLCSLAVKTITDYVRSSGELLSIRLRLINELESLG
# notes: as for B1
# B4: NgaBf (Brachybacterium faecium DSM 4810) (protein)
# chain: MQTVLTDSLEKVLGESAPRPAAPIGGAHASGFLGEVLSVQVALRAEEGEAPDPRSAEHAALRVRLGGEIADSARVHAVRRVPVSSPAPAEADEHYLATAPGEYPDLLEPLGGEEVRVGRGLWEALWIDVIDAPPGEHTLTLALTDTTGEQVLAEHAVQLRVHPHQLPPLSITNTHWFHADSLSTYYDVEVLSPQHWELIEAFLASAREMDVTSVLTPTWTPPLDTAEGHTRPFVQLIGIREEEGEYSFDLSALDRWLEICGRLGFTGIEIAHLFTQWGARSTPAIQVETGSGLEHRFGWHVPATSPEYRRLLEALIPVLRAHLEEHWDGQVLWHISDEPHEDQLDSYRAAKEQVADLLEGAQVVDALSSLAFAEQGVVDTPIVATSHVGPFLEAGRRPWVYYCVSQNRDVANRFIAQPSVRNRVLGRQLFAFDAPGFLHWGYNFWWAQFSLRPIDPFEETCAGGPFFGGDSFAVYPGPEGTPWLSLRHRVFAQAMADHRALTWLAELTDRPSAVALVDEGGTLTYSSFSYDVHAHLEARHAVDERIRAALAA
# notes: as for B1
# B5: NgaLy (Lacticaseibacillus yichunensis) (protein)
# chain: MDYQIDLVDPLTKVFADEVPDAWVVATQMVLQGEPLVLQLAYQRLRDDDASFSELTLATSLSAQCFEINQVPSQLPTWPHPDARYLRTTPGLFPDLLTPLTGPVRAYHGQVRALWLKIPTESLTPGSYELTITLTETASGQVVFSQTVPLTVAAAVAQPPRLHHTEWFSVDCLADYYHEAPYTPRLWAIIGNFMVFAHDEALMDTLLTPIFTPPLDTAVGATRTNVQLVQILPGTPYRFDWSRLRKWCQLAQQSGFAYLEMPPLFTQWGAQATPTITDTAGTALFGWHVPSTAPAYRAFLQALLPQLLAVLAEEGYDRDHLFFHLADEPNASTEDGYRAARAQVADLLDGLQVIDALSDVRFYENGLVPHPVVADDALAPFLAADAAPLWTYYCCAQTTAVPNRFFALRSYDNRVLGVLLYRHQIQGFLHWGFNFYNAQLSTRPIDPFAVTDAGGAFPSGDPFLVYPGADGQPLNSLRNEVQRLGFGDLAVLQQLEALKGRPFVERLIDVTAGMVPQFDDYPPDAGWLTRLHEKAVATLAAAAPAHKKE
# notes: synthetic gene, pET-47b(+), E. coli BL21 Star (DE3); His tag cut with HRV3C; monomer; DE motif D327/E328
# B6: NgaP2 (Paenibacillus sp. TS12) (protein)
# chain: LIRWSQVDEEGDTIMLEELPDFETRCLSSLSKVFADAELHDLPVNTGSAMWKEVFSFQVAYRSPQLIKSLKISAESELEPYLAIRAVGLSPSELPVFPNPDEGYIRTAPGLYPDPLYPLADGVHAVPNQWRSVWVTVSLPSMSEFIPAADIGAESVSFPIDLCFEDGKGNHLGAEKFALEIIFQELPEQTLLHTEWFHSDCIATQYKVEVFSEAHWKLIESYVHNAVNHGVNMLLTPLFTPPLDTYVGGERPTVQLIDVEITGVNEYRFKFDRLERWVEMCQRLGIQFIEFSHLFTQWGAKYAPKIIAKKDGEEKRIFGWDTEASGESYSLFLDQFLPQLVHFIRNHHLDDKVFFHVSDEPGMKHAESYRQASDILNKHLAGFSILDALSDYDFYEKGLVQIPVPSNDQIEPFIEHGVEPLWTYYCCGQDHHVSNRFFSLSSPRNRVLGAQLYKFGVQGFLHWGFNFWYSQYSKKVIDPFKVTDADCAFPSGDPFVVYPGADGPLDSIRWEVFREGLQDLRALKLLEALAGREKTLALLEQNLREELTFKSFPDDIEWLLSTREKINRAIKDAYRADR
# notes: cloned from genomic DNA, pET-47b(+), E. coli BL21 Star (DE3); His tag cut with HRV3C; monomer; not the GH123 NgaP of the same strain
# How the values were obtained:
# [1] = biological target: T1, NgaLy (Lacticaseibacillus yichunensis, UniProt A0ABW4CMK8, Y392A); test: relative activity versus wild type; type: biochemical; conditions: substrate taken from the standard assay (Assay I)
# T1 construct: gene ACFQ47_05640; synthetic gene, pET-47b(+), E. coli BL21 Star (DE3); His tag cut with HRV3C; monomer; DE motif D327/E328
# T1 sequence (A0ABW4CMK8 entry or part of it Y392A): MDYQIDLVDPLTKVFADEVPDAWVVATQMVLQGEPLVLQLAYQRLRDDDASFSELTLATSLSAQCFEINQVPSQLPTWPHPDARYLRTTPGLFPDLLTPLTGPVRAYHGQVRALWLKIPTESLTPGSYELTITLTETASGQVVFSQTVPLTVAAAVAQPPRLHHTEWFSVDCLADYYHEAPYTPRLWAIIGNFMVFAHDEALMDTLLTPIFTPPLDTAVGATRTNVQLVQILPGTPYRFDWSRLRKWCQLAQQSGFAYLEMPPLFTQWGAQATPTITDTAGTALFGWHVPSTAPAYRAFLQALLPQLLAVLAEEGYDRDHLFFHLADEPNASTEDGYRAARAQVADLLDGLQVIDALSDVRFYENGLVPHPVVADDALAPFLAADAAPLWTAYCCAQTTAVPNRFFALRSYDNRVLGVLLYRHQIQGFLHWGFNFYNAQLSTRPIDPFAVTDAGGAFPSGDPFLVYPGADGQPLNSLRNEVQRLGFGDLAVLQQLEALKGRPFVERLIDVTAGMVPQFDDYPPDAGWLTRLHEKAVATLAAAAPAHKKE
# [2] = biological target: T2, NgaLy (Lacticaseibacillus yichunensis, UniProt A0ABW4CMK8, W431A); test: relative activity versus wild type; type: biochemical; conditions: substrate taken from the standard assay (Assay I)
# T2 construct: gene ACFQ47_05640; synthetic gene, pET-47b(+), E. coli BL21 Star (DE3); His tag cut with HRV3C; monomer; DE motif D327/E328
# T2 sequence (A0ABW4CMK8 entry or part of it W431A): as the sequence (A0ABW4CMK8 entry or part of it Y392A) above, with A392Y, W431A counted along it
# [3] = substrate: CC(=O)N[C@H]1[C@H](Oc2ccc([N+](=O)[O-])cc2)O[C@H](CO)[C@H](O)[C@@H]1O[C@@H]1O[C@H](CO)[C@H](O)[C@H](O)[C@H]1O; test: purified protein; type: biochemical, Cohnella abietis; conditions: citrate pH 5.0, 25 °C (optimum), apparent, not saturated up to 2 mM
# [4] = substrate: CC(=O)N[C@H]1[C@H](Oc2ccc([N+](=O)[O-])cc2)O[C@H](CO)[C@H](O)[C@@H]1O; test: purified protein; type: biochemical, Arabidopsis thaliana; conditions: citrate pH 5.0, 40 °C (optimum), apparent, not saturated up to 2 mM
# [5] = substrate: CC(=O)N[C@H]1[C@H](Oc2ccc([N+](=O)[O-])cc2)O[C@H](CO)[C@H](O)[C@@H]1O; test: purified protein; type: biochemical, Bathyarchaeia (SeqCode); conditions: citrate pH 6.5, 70 °C (optimum), apparent, not saturated up to 2 mM
# [6] = substrate: CC(=O)N[C@H]1[C@H](Oc2ccc([N+](=O)[O-])cc2)O[C@H](CO)[C@H](O)[C@@H]1O; test: purified protein; type: biochemical, Brachybacterium faecium; conditions: citrate pH 6.5, 35 °C (optimum), apparent, not saturated up to 2 mM
# [7] = substrate: CC(=O)N[C@H]1[C@H](Oc2ccc([N+](=O)[O-])cc2)O[C@H](CO)[C@H](O)[C@@H]1O; test: purified protein; type: biochemical, Lacticaseibacillus yichunensis; conditions: HEPES pH 7.0, 40 °C (optimum), apparent, not saturated up to 2 mM
# [8] = substrate: CC(=O)N[C@H]1[C@H](Oc2ccc([N+](=O)[O-])cc2)O[C@H](CO)[C@H](O)[C@@H]1O; test: purified protein; type: biochemical, Paenibacillus sp. TS12; conditions: citrate pH 5.5, 40 °C (optimum), apparent, not saturated up to 2 mM
molecule,measurement,setting,value
CC(=O)N[C@H]1[C@H](Oc2ccc([N+](=O)[O-])cc2)O[C@H](CO)[C@H](O)[C@@H]1O [GalNAc-β-pNP],relative activity versus wild type,[1],The Y392A and W431A mutants were purified as soluble enzymes
same,relative activity versus wild type,[2],The Y392A and W431A mutants were purified as soluble enzymes
B1,Km,[3],11 ± 3 mM
same,kcat,[3],1.2 ± 0.3 s⁻¹
B2,Km,[4],12 ± 5 mM
same,kcat,[4],8 ± 3 s⁻¹
B3,Km,[5],3.9 ± 1 mM
same,kcat,[5],510 ± 50 s⁻¹
B4,Km,[6],1.0 ± 0.07 mM
same,kcat,[6],170 ± 5 s⁻¹
B5,Km,[7],1.0 ± 0.05 mM
same,kcat,[7],480 ± 10 s⁻¹
B6,Km,[8],0.36 ± 0.03 mM
same,kcat,[8],28 ± 0.6 s⁻¹

# — PMC11087588, “Genetic and functional diversity of β-N-acetylgalactosamine-targeting glycosidases expanded by deep-sea metagenome analysis” (Nature Communications, 2024)
